# B1: CAP256-VRC26.04 (antibody, V domains shown)
# VH: EVQLVESGGGVVQPGKSLRLSCAASQFSFNRYGMHWVRQAPGKGLEWVAAISYDGTDKYHADKVWGRFTISRDNSKNTLYLQMNSLRAEDTALYYCAKDLREDECEEWWSDYYDFGKQLPCRKSRGVAGIFDKWGQGTMVIVSS
# VL: QPVLTQPPSVSAAPGQKVTISCSGSSSNIGNNFVSWYQQRPGTAPSLLIYETNKRPSGIPDRFSGSKSATSATLAITGLQTGDEADYYCATWAASLTSARVFGTGTKVIVSG
# B2: CAP256-VRC26.07 (antibody, V domains shown)
# VH: EVQLVESGGGVVQPGRSLRLSCVGSQFSFNRYGMHWVRQAPGKGLEWVAGISFDGTDRYHADNVWGRFTISRDNSKNTLYLQMSSLRAEDTALYYCAKDLREDECEEWWSDYYDFGKKLPCRKSRGVAGVFDKWGQGTMVTVSS
# VL: QAVLTQPPSVSAAPGQNVTISCSGSGSNIGNNFVSWYQQRPGTAPKLLIYESNKRPSGIPDRFSGSKSGTSATLAITGLQTGDEAYYYCATWAARLNSARVFGTGTMVTVLG
# B3: CAP256-VRC26.08 (antibody, V domains shown)
# VH: EVQLVESGGGVVQPGRSLTLSCAASQFTFSNYGMHWVRQAPGKGLEWVASVSNDGTKKYHGDSVWGRFTISRDNSKNTLFLQMSSLRAEDTAVYFCVRDQREDECEEWWSDYYDFGRELPCRKFRGLGLAGIFDIWGHGTMVTVSS
# VL: QSALTQPPSVSAAPGQKVTISCSGNSSNIGNNFVSWYQQVPGTAPKLLLYETYRRPSGIPDRFSGSKSGTSATLAITGLQTGDEADYYCTVWGVRKGVGAVFGTGTKVTVLG
# Key:
# Assay in all cases: cell-based or functional assay
# [1] = biological target: HIV-1 Env of CAAN.A2 (HIV-1)
# [2] = biological target: HIV-1 Env of BG505.w6m (HIV-1)
# [3] = biological target: HIV-1 Env of CM244.ec1 (HIV-1)
# [4] = biological target: HIV-1 Env of AC10.29 (HIV-1)
# [5] = biological target: HIV-1 Env of THRO.18 (HIV-1)
# [6] = biological target: HIV-1 Env of TRO.11 (HIV-1)
# [7] = biological target: HIV-1 Env of PVO.04 (HIV-1)
# [8] = biological target: HIV-1 Env of ZM109.4 (HIV-1)
# [9] = biological target: HIV-1 Env of Q769.d22 (HIV-1)
# [10] = biological target: HIV-1 Env of CAP256.SU (HIV-1)
# [11] = biological target: HIV-1 Env of KER2008.12 (HIV-1)
# [12] = biological target: HIV-1 Env of RW020.2 (HIV-1)
# [13] = biological target: HIV-1 Env of ZM249.1 (HIV-1)
# [14] = biological target: HIV-1 Env of UG037.8 (HIV-1)
# [15] = biological target: HIV-1 Env of Q23.17 (HIV-1)
# [16] = biological target: HIV-1 Env of 191821.E6.1 (HIV-1)
# [17] = biological target: HIV-1 Env of CAP45.G3 (HIV-1)
# [18] = biological target: HIV-1 Env of REJO.67 (HIV-1)
# [19] = biological target: HIV-1 Env of CNE3 (HIV-1)
# [20] = biological target: HIV-1 Env of TRJO.58 (HIV-1)
# [21] = biological target: HIV-1 Env of CAP244.D3 (HIV-1)
# [22] = biological target: HIV-1 Env of 0260.v5.c36 (HIV-1)
# [23] = biological target: HIV-1 Env of SC422.8 (HIV-1)
# [24] = biological target: HIV-1 Env of ZM197.7 (HIV-1)
# [25] = biological target: HIV-1 Env of TH976.17 (HIV-1)
# [26] = biological target: HIV-1 Env of ZM233.6 (HIV-1)
# [27] = biological target: HIV-1 Env of DU172.17 (HIV-1)
# [28] = biological target: HIV-1 Env of CAP210.E8 (HIV-1)
# [29] = biological target: HIV-1 Env of 96ZM651.02 (HIV-1)
# [30] = biological target: HIV-1 Env of MB201 (HIV-1)
# [31] = biological target: HIV-1 Env of QH0692.42 (HIV-1)
# [32] = biological target: HIV-1 Env of ZM53.12 (HIV-1)
# [33] = biological target: HIV-1 Env of CAP256.PI (HIV-1)
# [34] = biological target: HIV-1 Env of DU156.12 (HIV-1)
# [35] = biological target: HIV-1 Env of RHPA.7 (HIV-1)
# [36] = biological target: HIV-1 Env of Q168.a2 (HIV-1)
# [37] = biological target: HIV-1 Env of WITO.33 (HIV-1)
# [38] = biological target: HIV-1 Env of MB539.2B7 (HIV-1)
# [39] = biological target: HIV-1 Env of Q842.d12 (HIV-1)
# [40] = biological target: HIV-1 Env of Q259.d2.17 (HIV-1)
# [41] = biological target: HIV-1 Env of Q461.e2 (HIV-1)
# [42] = biological target: HIV-1 Env of 6535.3 (HIV-1)
# [43] = biological target: HIV-1 Env of KER2018.11 (HIV-1)
# [44] = biological target: HIV-1 Env of ZM135.10a (HIV-1)
# [45] = biological target: HIV-1 Env of ZM214.15 (HIV-1)
# [46] = biological target: HIV-1 Env of C1080.c3 (HIV-1)
# [47] = biological target: HIV-1 Env of DU422.01 (HIV-1)
# [48] = biological target: HIV-1 Env of 3016.V5.c36 (HIV-1)
# [49] = biological target: HIV-1 Env of 6405.v4.c34 (HIV-1)
# [50] = biological target: HIV-1 Env of strain CNE3 (clade AE), on Env-pseudovirus (HIV-1 strain CNE3)
# [51] = biological target: HIV-1 Env of strain TH976.17 (clade AE), on Env-pseudovirus (HIV-1 strain TH976.17)
# [52] = biological target: SIV Env of SIVmac251.30 (nonHIV control), on Env-pseudovirus (SIVmac251.30)
binder,measurement,setting,value
B1,neutralization IC50,[1],> 50 µg/mL
same,neutralization IC50,[2],8.43 µg/mL
same,neutralization IC50,[3],0.361 µg/mL
same,neutralization IC50,[4],> 50 µg/mL
same,neutralization IC50,[5],> 50 µg/mL
same,neutralization IC50,[6],> 50 µg/mL
same,neutralization IC50,[7],> 50 µg/mL
same,neutralization IC50,[8],> 50 µg/mL
same,neutralization IC50,[9],> 50 µg/mL
same,neutralization IC50,[10],0.003 µg/mL
same,neutralization IC50,[11],> 50 µg/mL
same,neutralization IC50,[12],> 50 µg/mL
same,neutralization IC50,[13],11.4 µg/mL
same,neutralization IC50,[14],> 50 µg/mL
same,neutralization IC50,[15],23.6 µg/mL
same,neutralization IC50,[16],> 50 µg/mL
same,neutralization IC50,[17],> 50 µg/mL
same,neutralization IC50,[18],> 50 µg/mL
same,neutralization IC50,[19],> 50 µg/mL
same,neutralization IC50,[20],> 50 µg/mL
same,neutralization IC50,[21],> 50 µg/mL
same,neutralization IC50,[22],> 50 µg/mL
same,neutralization IC50,[23],> 50 µg/mL
same,neutralization IC50,[24],0.254 µg/mL
same,neutralization IC50,[25],> 50 µg/mL
same,neutralization IC50,[26],0.06 µg/mL
same,neutralization IC50,[27],> 50 µg/mL
same,neutralization IC50,[28],0.005 µg/mL
same,neutralization IC50,[29],> 50 µg/mL
same,neutralization IC50,[30],> 50 µg/mL
same,neutralization IC50,[31],> 50 µg/mL
same,neutralization IC50,[32],0.004 µg/mL
same,neutralization IC50,[33],> 50 µg/mL
same,neutralization IC50,[34],10.4 µg/mL
same,neutralization IC50,[35],> 50 µg/mL
same,neutralization IC50,[36],> 50 µg/mL
same,neutralization IC50,[37],> 50 µg/mL
same,neutralization IC50,[38],> 50 µg/mL
same,neutralization IC50,[39],> 50 µg/mL
same,neutralization IC50,[40],0.025 µg/mL
same,neutralization IC50,[41],> 50 µg/mL
same,neutralization IC50,[42],> 50 µg/mL
same,neutralization IC50,[43],0.008 µg/mL
same,neutralization IC50,[44],> 50 µg/mL
same,neutralization IC50,[45],> 50 µg/mL
same,neutralization IC50,[46],0.212 µg/mL
same,neutralization IC50,[47],4.17 µg/mL
same,neutralization IC50,[48],0.283 µg/mL
same,neutralization IC50,[49],> 50 µg/mL
B2,"IC50, neutralization of Env-pseudovirus (TZM-bl assay)",[50],> 50 µg/mL
same,"IC50, neutralization of Env-pseudovirus (TZM-bl assay)",[51],> 50 µg/mL
B3,"IC50, neutralization of Env-pseudovirus (TZM-bl assay)",[52],> 50 µg/mL
same,"IC50, neutralization of Env-pseudovirus (TZM-bl assay)",[50],> 50 µg/mL
same,"IC50, neutralization of Env-pseudovirus (TZM-bl assay)",[51],> 50 µg/mL

# Source: patent US20200199204A1 (UNITED STATES OF AMERICA AS REPRESENTED BY THE SECRETARY …, published 2020)
